Patent US20190315854A1 (BEIJING VDJBIO, published 2019)
Read-outs that look alike come from different tables or passages of the source.

T1: IL-6 receptor on DS-1 cells (ATCC CRL 11102) (UniProt P08887 20-468, limits assumed)
T1 sequence (looked up): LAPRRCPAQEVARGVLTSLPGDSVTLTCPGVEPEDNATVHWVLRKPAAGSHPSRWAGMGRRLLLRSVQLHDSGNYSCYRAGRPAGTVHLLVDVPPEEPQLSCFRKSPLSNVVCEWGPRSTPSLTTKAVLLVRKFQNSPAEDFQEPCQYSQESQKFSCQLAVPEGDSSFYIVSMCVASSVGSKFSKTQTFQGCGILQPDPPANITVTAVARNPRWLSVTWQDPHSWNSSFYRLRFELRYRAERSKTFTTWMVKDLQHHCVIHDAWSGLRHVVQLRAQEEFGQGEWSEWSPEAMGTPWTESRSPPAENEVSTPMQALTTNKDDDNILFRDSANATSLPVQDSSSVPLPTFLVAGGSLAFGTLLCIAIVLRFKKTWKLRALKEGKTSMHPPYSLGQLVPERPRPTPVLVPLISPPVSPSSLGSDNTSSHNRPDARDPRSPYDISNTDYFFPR

T2: sIL-6R (soluble IL-6 receptor; SBH Sciences) (human, UniProt P08887 20-365)
T2 construct: also called human IL-6R
T2 sequence: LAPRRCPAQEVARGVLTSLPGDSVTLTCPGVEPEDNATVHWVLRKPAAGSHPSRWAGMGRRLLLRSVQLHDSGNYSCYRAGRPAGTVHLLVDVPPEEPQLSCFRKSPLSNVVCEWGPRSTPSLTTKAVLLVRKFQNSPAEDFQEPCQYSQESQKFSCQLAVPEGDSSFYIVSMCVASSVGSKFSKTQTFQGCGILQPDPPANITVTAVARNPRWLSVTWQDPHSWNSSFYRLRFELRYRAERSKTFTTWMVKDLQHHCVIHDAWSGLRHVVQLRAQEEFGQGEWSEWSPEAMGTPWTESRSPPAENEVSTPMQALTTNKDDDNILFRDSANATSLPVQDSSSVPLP


Columns and labels:
[1] = molecular target: T1, IL-6 receptor on DS-1 cells (ATCC CRL …); assay: cell-based or functional assay
[2] = molecular target: T2, sIL-6R (soluble IL-6 receptor; SBH …); assay: SPR; ratio of KD at pH 6.0 to KD at pH 7.4
Experimental: (§1) All SPR measurements were performed on a BIAcore 3000 instrument (GE Biosciences, Piscataway, N.J.). BIAcore Software-BIAcore 3000 Control Software V3.2 was used for the operation and control of the BIAcore 3000 instrument. BiaEvaluation Software V4.1 was used for the analysis of SPR data from the BIAcore 3000 instrument and data was plotted using Graph Pad Prism Software Version 5. […] The indicated antibodies were used as the ligand for the construction of the reference channel of the chip. […] Each sample was injected for 3 min at a flow rate of 30 μL/min to allow for binding to chip-bound antibody. Next, binding buffer without analyte was sent over the chip at the same flow rate to allow for dissociation of bound analyte. After 500s, remaining bound analyte was removed by injecting regeneration solution (1M Formic acid). Data was analyzed by using the Kinetics Wizard and the manual fitting programs that are both included with the BiaEvaluation Software V4.1.
(§2) SPR measurements at pH 7.4 and pH 6.0 were performed in parallel and KD values calculated according to the protocol as detailed in Example 1. The pH dependence is calculated as the ratio between the KD value at pH 6.0 and the KD value at pH 7.4, which indicates the fold of affinity decrease from the pH7.4 to pH6.0. If the pH dependence of a subject antibody described herein is over 1, it means that the antibody binds to IL-6R in such a pH-dependent manner that its binding to IL-6R at pH7.4 is higher than at pH6.0. If the pH dependence of a subject antibody described herein is lower than 1, it means that the antibody binds to IL-6R in such a pH-dependent manner that its binding to IL-6R at pH6.0 is higher than at pH7.4.

[3] = molecular target: T2, sIL-6R (soluble IL-6 receptor; SBH …); assay: SPR (BIAcore 3000), antibody on chip, sIL-6R analyte, 25 C
Experimental: as §1

[4] = molecular target: T2, sIL-6R (soluble IL-6 receptor; SBH …); assay: as above; remark: listed apart in the source
Experimental: as §1

[5] = molecular target: T2, sIL-6R (soluble IL-6 receptor; SBH …); assay: SPR (BIAcore 3000), antibody on chip, sIL-6R analyte, pH 6.0
Experimental: as §1, §2

[6] = molecular target: T2, sIL-6R (soluble IL-6 receptor; SBH …); assay: SPR (BIAcore 3000), antibody on chip, sIL-6R analyte, pH 7.4
Experimental: as §1, §2

[7] = molecular target: T2, sIL-6R (soluble IL-6 receptor; SBH …); assay: SPR (BIAcore 3000), antibody on chip, sIL-6R analyte, 25 C; remark: listed apart in the source
In short: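 Antibody immobilized on chip, sIL-6R injected as analyte for 3 min at 30 μL/min, then buffer-only dissociation for 500 s. Surface regenerated with 1M formic acid between cycles. Kinetics obtained by fitting sensorgrams with Kinetics Wizard and manual fitting.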

[8] = molecular target: T2, sIL-6R (soluble IL-6 receptor; SBH …); assay: SPR (BIAcore 3000), antibody on chip, sIL-6R analyte, pH 6.0; remark: listed apart in the source
Experimental: as §1, §2

[9] = molecular target: T2, sIL-6R (soluble IL-6 receptor; SBH …); assay: SPR (BIAcore 3000), antibody on chip, sIL-6R analyte, pH 7.4; remark: listed apart in the source
Experimental: as §1, §2

Binder	IC50 (µg/ml), inhibition of DS-1 cell proliferation, MTS assay, IL6 2 ng/mL [1]	pH dependence (Fold of affinity decrease) [2]	Kd [3]	Relative Affinity [3]	koff [3]	kon [3]	Kd [4]	Relative Affinity [4]	koff [4]	kon [4]	Kd [7]	Relative Affinity [7]	koff [7]	kon [7]	Kd [8]	koff [8]	kon [8]	Kd [9]	koff [9]	kon [9]	also measured
202# (antibody, human IgG1, kappa, V domains shown) VH: QVQLQESGPGLVRPSQTLSLTCTVSGYSITSDHAWSWVRQPPGRGLEWIGYISYSGITTYNPSLKSRVTMLRDTSKNQFSLRLSSVTAADTAVYYCARVLARITAMDYWGQGSLVTVSS VL: DIQMTQSPSSLSASVGDRVTITCRASQDISSYLNWYQQKPGKAPKLLIYYTSRLHSGVPSRFSGSGSGTDFTFTISSLQPEDIATYYCGQGNRLPYTFGQGTKVEIKR	0.0686 µg/mL	0.74 fold	0.0288 nM	99 fold vs 25 (Tocilizumab)	2.46e-06 s⁻¹	85300 M⁻¹ s⁻¹	0.0236 nM	119 fold vs 25 (Tocilizumab)	3.17e-06 s⁻¹	134000 M⁻¹ s⁻¹											Kd [5]: 0.0214 nM; koff [5]: 6.1e-06 s⁻¹; kon [5]: 284000 M⁻¹ s⁻¹; Kd [6]: 0.0288 nM; koff [6]: 2.46e-06 s⁻¹; kon [6]: 85300 M⁻¹ s⁻¹
204# (antibody, human IgG1, kappa, V domains shown) VH: QVQLQESGPGLVRPSQTLSLTCTVSGYSITSDHAWSWVRQPPGRGLEWIGFISYSGMTTYNPSLKSRVTMLRDTSKNQFSLRLSSVTAADTAVYYCARCLARITAMDYWGQGSLVTVSS VL: DIQMTQSPSSLSASVGDRVTITCRASQDISSYLNWYQQKPGKAPKLLIYYTSRLHSGVPSRFSGSGSGTDFTFTISSLQPEDIATYYCGQGNRLPYTFGQGTKVEIKR	0.0362 µg/mL		0.0143 nM	199 fold vs 25 (Tocilizumab)	3.28e-06 s⁻¹	229000 M⁻¹ s⁻¹															
206# (antibody, human IgG1, kappa, V domains shown, also called Sample # 206) VH: QVQLQESGPGLVRPSQTLSLTCTVSGYSITSDHAWSWVRQPPGRGLEWIGFISYSGMTTYNPSLKSRVTMLRDTSKNQFSLRLSSVTAADTAVYYCARSLARITAMDYWGQGSLVTVSS VL: DIQMTQSPSSLSASVGDRVTITCRASQDISSYLNWYQQKPGKAPKLLIYYTSRLHSGVPSRFSGSGSGTDFTFTISSLQPEDIATYYCGQGNRLPYTFGQGTKVEIKR	0.0339 µg/mL	28.4 fold	0.00075 nM	3800 fold vs 25 (Tocilizumab)	1.41e-07 s⁻¹	189000 M⁻¹ s⁻¹	0.000587 nM	4770 fold vs 25 (Tocilizumab)	1.35e-07 s⁻¹	230000 M⁻¹ s⁻¹											Kd [5]: 0.0213 nM; koff [5]: 8.78e-06 s⁻¹; kon [5]: 412000 M⁻¹ s⁻¹; Kd [6]: 0.00075 nM; koff [6]: 1.41e-07 s⁻¹; kon [6]: 189000 M⁻¹ s⁻¹
209# (antibody, human IgG1, kappa, V domains shown, also called Sample # 209) VH: QVQLQESGPGLVRPSQTLSLTCTVSGYSITSDHAWSWVRQPPGRGLEWIGFISYSGMTTYNPSLKSRVTMLRDTSKNQFSLRLSSVTAADTAVYYCARSLARITAIDFWGQGSLVTVSS VL: DIQMTQSPSSLSASVGDRVTITCRASQDISSYLNWYQQKPGKAPKLLIYYTSRLHSGVPSRFSGSGSGTDFTFTISSLQPEDIATYYCQQGNTLPYTFGQGTKVEIKR		65.5 fold									0.000669 nM	4720 fold vs 25 (Tocilizumab)	1.37e-07 s⁻¹	204000 M⁻¹ s⁻¹	0.0438 nM	2.99e-05 s⁻¹	683000 M⁻¹ s⁻¹	0.000669 nM	1.37e-07 s⁻¹	204000 M⁻¹ s⁻¹	

Second part, led by results:

IC50 (µg/ml), inhibition of DS-1 cell proliferation, MTS assay, IL6 2 ng/mL [1]	pH dependence (Fold of affinity decrease) [2]	Kd [3]	Relative Affinity [3]	koff [3]	kon [3]	Kd [4]	Relative Affinity [4]	koff [4]	kon [4]	Kd [7]	Relative Affinity [7]	koff [7]	kon [7]	Kd [8]	koff [8]	kon [8]	Kd [9]	koff [9]	kon [9]	Binder	also measured
	2.63 fold									0.0605 nM	52.2 fold vs 25 (Tocilizumab)	1.01e-05 s⁻¹	166000 M⁻¹ s⁻¹	0.159 nM	4.62e-05 s⁻¹	292000 M⁻¹ s⁻¹	0.0605 nM	1.01e-05 s⁻¹	166000 M⁻¹ s⁻¹	237# (antibody, human IgG1, kappa, V domains shown, also called Sample # 237) VH: QVQLQESGPGLVRPSQTLSLTCTVSGYSITSDHAWSWVRQPPGRGLEWIGYISYSGMTTYNPSLKSRVTMLRDTSKNQFSLRLSSVTAADTAVYYCARCLARTTAMDYWGQGSLVTVSS VL: DIQMTQSPSSLSASVGDRVTITCRASQDISSYLNWYQQKPGKAPKLLIYYTSRLHSGVPSRFSGSGSGTDFTFTISSLQPEDIATYYCGQGNRLPYTFGQGTKVEIKR	
	95.5 fold									0.00112 nM	2820 fold vs 25 (Tocilizumab)	1.48e-07 s⁻¹	132000 M⁻¹ s⁻¹	0.107 nM	3.1e-05 s⁻¹	291000 M⁻¹ s⁻¹	0.00112 nM	1.48e-07 s⁻¹	132000 M⁻¹ s⁻¹	231# (antibody, human IgG1, kappa, V domains shown, also called Sample # 231) VH: QVQLQESGPGLVRPSQTLSLTCTVSGYSITSDHAWSWVRQPPGRGLEWIGYISYSGITTYNPSLKSRVTMLRDTSKNQFSLRLSSVTAADTAVYYCARTLARMTAIDFWGQGSLVTVSS VL: DIQMTQSPSSLSASVGDRVTITCRASQDISSYLNWYQQKPGKAPKLLIYYTSRLHSGVPSRFSGSGSGTDFTFTISSLQPEDIATYYCQQGNTLPYTFGQGTKVEIKR	
